Laboratory results from patent US7557181B2, “Pan-HER antagonists and methods of use” (Molecular Logix, Inc., priority 2005, dated 2009).

B1: BiRegulin: chimeric EGF homolog, amino terminal residues (NSDSE) of EGF replaced with corresponding residues of HRGβ1 (SHLVK) (protein)
chain: HHHHHHIEGRSHLVKCPLSHDGYCLHDGVCMYIEALDKYACNCVVGYIGERCQYRDLKWWELR
B2: BiRV35EG39L: BiRegulin with glycine 39 replaced by leucine and valine 35 replaced with glutamate (protein)
chain: HHHHHHIEGRSHLVKCPLSHDGYCLHDGVCMYIEALDKYACNCVEGYILERCQYRDLKWWELR
B3: heregulin (protein)
chain: SHLVKCAEKEKTFCVNGGECFMVKDLSNPSRYLCKCPNEFTGDRCQNYVMASFYKHLGIEFMEAEELY

Experiments:
Assay type in all cases: cell-based
[1] = tested on: HER5 cells (mouse fibroblast cells that overexpress human EGFR); test: HER5 cell proliferation stimulation assay (WST-1); conditions: serum-free, 48 hour proliferation period, FIG. 3
Experimental: Hung (MD Anderson Cancer Center). Stock cultures of HER5 were propagated in D-MEM/F12 medium containing 10% fetal bovine serum, 100 units/ml of penicillin and 100 ug/ml of streptomycin in a water-jacketed incubator at 37° C. in a humidified 5% CO2 atmosphere. For HER5 proliferation assays, the cells were changed into DMEM/F12 without serum for 24 hours. Cells were then trypsinized and suspended at 1E5 cells/ml. […] Fifty microliters of cell suspension (5000 cells) were added to appropriate wells bringing the total volume to 100 ul at the desired concentrations. Plates were incubated for a 48 hour proliferation period. Cell proliferation was determined by addition of 10 ul/well of WST-1 Cell Proliferation Reagent (Roche Applied Sciences, Indianapolis, Ind.) for the last three hours of the proliferation period. WST-1 is a tetrazolium salt that is cleaved to formazan dye by mitochondrial dehydrogenases in viable cells. The amount of formazan was measured at 450 nm using a microplate reader (Dynex Technologies) with MRX Revelation software.

[2] = tested on: MCF-7 cells (human breast cancer cell line that express HER2 and HER3); test: MCF-7 cell proliferation stimulation assay (WST-1); conditions: serum-free, 72 hours, FIG. 4
Experimental: MCF-7 cells were obtained from the American Type Culture Collection (ATCC). Stock cultures of MCF-7 were maintained in Eagle's MEM supplemented with 1% ITS-X (Invitrogen) and 10% fetal bovine serum. For proliferation assays, MCF-7 cells were transferred to serum-free medium (SFM) for 24 hours and then trypsinized and suspended at 1E5 cells/mL in SFM. Fifty microliters of cell suspension (5000 cells) were plated per well in 96 well microtiter plates. Serial dilutions of HER ligands or mutant proteins were prepared at twice the final concentration in SFM and 50 ul was added to wells, bringing the final volume to 100 ul at the desired final concentration. Plates were incubated for 72 hours at 37 C in a humidified 5% CO2 atmosphere. Cell proliferation was determined by addition of 10 ul/well of WST-1 Cell Proliferation Reagent (Roche Applied Sciences, Indianapolis, Ind.) for the last three hours of the proliferation period.

[3] = target: T1, EGFR (Homo sapiens, UniProt P00533); test: Autophosphorylation of EGFR in A431 cells; conditions: epithelial cancer cell line, FIG. 2
T1 construct: Autophosphorylation of EGFR in A431 cells, an epithelial cancer cell line; endogenous in cells; host or cells: A431 cells

Molecule	stimulation of HER5 cells (proliferation) [1]	stimulation of MCF-7 cells (proliferation) [2]	stimulation of autophosphorylation of EGFR [3]
B1	can be stimulated	can be stimulated	stimulated
B2	Neither cell line is stimulated	Neither cell line is stimulated	does not stimulate autophosphorylation
B3	–	can be stimulated	–
